From PMC3081348, “Kaposi's Sarcoma-Associated Herpesvirus-Encoded LANA Down-Regulates IL-22R1 Expression through a Cis-Acting Element within the Promoter Region”

How the values were obtained:
[1] = biological target: T1, LANA-C (C-terminus of LANA) (Kaposi's sarcoma-associated herpesvirus …, UniProt Q9QR71 918-1129); assay: EMSA; 4 mM Mg2+, poly(dI-dC); affinity similar to LBS1; EMSA: 20 mM Tris/HCl pH 7.4, 100 mM NaCl, 4 mM MgCl2, 0.25 mM EDTA, 1 mM DTT, 0.5 ug poly(dI-dC), 10% glycerol, 100 ng labeled oligo, 0-400 ng LANA-C, 20 min at room temperature; 6.5% native PAGE on ice; conditions: protein: recombinant; tags: His; chain copies: 2; annealed sense and antisense oligos
T1 sequence (Q9QR71 918-1129): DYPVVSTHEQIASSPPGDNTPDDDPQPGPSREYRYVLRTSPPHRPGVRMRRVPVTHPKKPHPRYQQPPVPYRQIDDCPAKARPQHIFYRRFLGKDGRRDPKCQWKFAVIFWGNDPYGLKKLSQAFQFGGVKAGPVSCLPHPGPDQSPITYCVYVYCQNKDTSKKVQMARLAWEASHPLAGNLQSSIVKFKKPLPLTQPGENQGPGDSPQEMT

[2] = biological target: T1, LANA-C (C-terminus of LANA); assay: EMSA; 4 mM Mg2+, poly(dI-dC); EMSA: 20 mM Tris/HCl pH 7.4, 100 mM NaCl, 4 mM MgCl2, 0.25 mM EDTA, 1 mM DTT, 0.5 ug poly(dI-dC), 10% glycerol, 100 ng labeled oligo, 0-400 ng LANA-C, 20 min at room temperature; 6.5% native PAGE on ice; conditions: protein: recombinant, tags: His, chain copies: 2, annealed sense and antisense oligos

B1: LBS-like (IL-22R1 promoter -69 to -34) (dsDNA)
DNA 1: TCCCCGCCCCATGCCCGGGTGGAGCCAGCTGCCAG
DNA 2: CTGGCAGCTGGCTCCACCCGGGCATGGGGCGGGGA
binding result [1]: binds

B2: mLBS-like (scrambled LBS-like) (dsDNA)
DNA 1: TCCCCACCGGCTCCGCGCGTGGAGCCAGCTGCCAG
DNA 2: CTGGCAGCTGGCTCCACGCGCGGAGCCGGTGGGGA
binding result [2]: no binding

B3: LBS (37 bp, TR DNA LBS1) (dsDNA)
DNA 1: GCGGAATTCGGCCCCATGCCCGGGCGGGAGGCGGGAT
DNA 2: ATCCCGCCTCCCGCCCGGGCATGGGGCCGAATTCCGC
binding result ([2]; label: 5'-biotin): binds
